B1: unnamed (protein)
chain: MRLIRRWPMRRLAIGFVLALVLSACDWRGPAPTQQSVVAARGPFAVGTIAVPSSAGFGGGTIYYPSDNAGPFAVISISPGFLGDQSSIAVWGPRLASNGFVAITINTTNGFILPDQRSQEQRQALTYVVNQGNNPSSPISGKVDPDRKGVAGHSMGGGATLISANADPTIRAAMPLAPWNGSASFPNVRVPTLIWACEADNIAPVASHASPMYNSIPSTTRKMYLSVDNGNHFCANSPDNSSQTVGKFGVSFFKKFLDTDTRYDPWVCGASRATAGTVLNEVRSTCPF
B2: unnamed (protein)
chain: MNTSILEKMAVGASALLFSFSAFSFTPDPTPDPDPDPGPGPCQSDCDFTRGPNPTSSYLEANSGPYSVSTISVSRSVSGFGGGTIHYPTNTTGTMGAVAIVPGFLAGESSISWWGPRLASHGFVVITIATNSGFDQPDSRETQLGRALDYVISQSNSGSSPISGMVDSTRVGAMGWSMGGGGTLRLASGTRLSAAIPLAPWHSGSNNFNQIDTPTLIIACENDSTAPVGSHASPFYNRIPTSTDKAYLEINNGSHSCANGGGSNGGLLGKYGVSWMKRFIDQDTRYSQFLCGPNHAANSAISEYRETCNY
B3: unnamed (protein)
chain: MKFRLAKLAVLSCALASASAFAQYQKGPDPTTSSLERAGSFATRTISVSSLAASGFGGGRIYYPTASGSYGVIAVSPGYTGTASTMYFWGERLSSHGFVVIVIETNTLLDQPGSRANQLMAALNYTVSQGNSRTSALYGKVDGNRRGVAGHSMGGGGTLIAAADNASLKAAVPMAPWNLSSLSFRGIRVPTMIFGCQSDAIAPVNTHAVPFYNAIPSSTKKGYVEMRLDDHFCVMNGGGHYETLGKLGISWFKRFIDEDTRYSKFLCGTEYNATVRSTEVSDSKNNCPY
B4: unnamed (protein)
chain: MSCRQEPLGDKMRFFSQKCLATVAAVVATLASGAALAQTSNPYQRGPNPTTSSLEASRGSFAISQFRVSRPSGFGGGTVYYPTNAGGTVGAIAVVPGFLARQSTINWWGPRLASHGFVVITIDTNSTSDQPASRATQLMAALRQVVTLNGTRSSPIYNKVDTSRLAVMGWSMGGGGTLIAARDNPTLKAAVPFAPYNTGTNFSASAVPTLIIGCESDTVAPVGQHAEAFYTSMTRPEKAYLEINGGSHTCATSGNRNQAMIGKYGVSWMKRFVDNDTRFSDFLCGAPHAADLRNTSVISEYRETCPY
B5: unnamed (protein)
chain: MLALRTSFPRVLTRLLAASLATGLVAQAQAAGHERGPAPTAASLEAEAGPFQVASTVLGAPVGYKGGTVFYPKGPGPFALVAFAPGFIETQSWNAWWAKYLASHGFVVVNIDTKSTLAFPPARQREQLAALKDVIQRSHTRGTPFYGLVDATRLGAMGHSMGGGATLELARDTPHIKAIVPMAPFQTTGTDYSRLTVPTLILTCKGDIVASAKSHAAPIYDSLPSSLDKAHVELAGGGGHPCTTSLGTSAEVKKVAAKYGVSWLKRFLDEDTRYSPFLCGAEHEASLKTSVVSAYQGNCPH
B6: unnamed (protein)
chain: MKTSNTRTARTIPGDTMSLGLTRLAKAAVLAAALLMSAAAQAQSNPYQKGPDPTAASLEATAGSFAVSTTSVSSLSASGFGGGTIYYPTAAGSYGAIAVSPGFTATQSSIAWLGPRLASHGFVVITIDTNSTLDQPDSRATQLMAALNYVVSLSQTSSSPIYGKVDANRLGVAGHSMGGGGTLIAARDNPTLKAAVPLAPWNTTKNFSSVTVPTLIIGCENDTVAPVSSHAIPFYNSIPSSTDKAYMELNGADHFCPQSSSNNPIIGKYMVAWMKRFVDNDTRYSPFLCGAPHQADLSSSAVSDYRSNCPY
B7: unnamed (protein)
chain: MKKLALKKLAACTFSLLFSLSAYSGGGDDGSNSGELPPPSTCSINCGFEIGPDPSLSFVRASQGPLPVSTSIVSSSVDGFGGGTIYYPSTITDEMATIAISPGFTASQSAIAWWGPLLASHGFVVITIDTNGTFDQPTSRGRQLDSALNYLISEGNRANSPVAGLIDENRLATMGHSMGGGGALQSAARNRLSASVPLAPFNTGSNDFNQINVPTMIMGCEDDGVAPVNSHAIPFYQDIPGTTDKALLEIANGPHNCANGGSSNNPTLSTYGVSWMKRFLDKDRRYDQFLCGPDHIADSRISDFRDTCTF
B8: unnamed (protein)
chain: MGSDDAWIRGEDPTEASIVAMGPYAVGEITEADGLRDGPLYGDASVGDGGATVYYPTDADPPFGGIAVYPGWLYNRDAIAGWGPFLASHGIVMMAVDPQSTGEQPEDRQLGQADALISLKGENTRAGSPLEGKLDTTRLGVMGWSMGGGATWLNADDTASEVYADLVVAISLCGWRPVAVGGNTKAASLQFASVADVLAGGMSQPVYDLIPASTPKMLIEFEGDDHFIANDPSGASWQVGRYGLSWIKVFLERDERYRPFLMTMPMNTTEVRPLM
B9: unnamed (protein)
chain: MKTSNSRQRRWAVGLGLLLLAAAAHAQTNPYQKGPDPTSASLNATAGPFAVATTSVSSSASGFGGGTIYYPTTAGSYAAIAISPGFTATQSSIAWLGRRLASHGFVVITINTNSTLDQPPSRATQLMAALRYLTNSSSSTVRSRVDANRLGVAGHSMGGGGTLIAARDNPTLKAAVPLTPWSTTKSFSTVRVPTLIVGAENDTVAPVSSHSIPFYNSLPSSLDKAYAELNGASHFAPNSTNTPIGRYSVAWVKRFMDNDTRYSPFLCGAPHTAYATSTVFSDYRSTCPY
B10: unnamed (protein)
chain: MKVNKAHSIAVGLLSLVAVAHTHAQTNPYAKGPDPTSAALEADGPFVVSTQNISGAGFGGATVYSPDTAGTYAVVAFCPGFTATRSSVASFGRRLATHGFVVATIDTNSTLDLPPSRGTQLLAALKTVSALSTGPAAGKIDASRKVVSGWSMGGGGTLYASASDETLKTAVGLAPYSAQKKKFSTSVPQLILGGEDDIVAPVSSHSLSFFNQLPNATPKLYAEIADADHYFPTDAESSQPASKLQIAWVKRFADNDTRYEQFLSTAGIQVDLTNGRLSDSRRESTTF
B11: unnamed (protein)
chain: MRPSSSSLHTAVPLRPCSRAMTALIALATTIGLALALLTAAAPPAAAADLLSQGRLATASSTENTSTPASAAVDGNTGTRWASTFSDPQWLSVDLGATATISQVVLRWEAAYARAFQIQTSTNGTVWTTVHSTTTGTGGVQTLDVIGNGRYVRMLGTQRGTTYGYSLFEFQVYGSGGGTPPGNGIPDPTATSLETANGPLTTATYAVPSPSGYGSGTVTYPTDSGSYPGVVLMPGYQGTQQNLQWLAPRLASWGFVVINVGTNTLTDDPASRGRQITAAGSQLIALGNAAGNPLSGRVSGALGAVGHSMGGGGVMAALRDDARFRAGVPTAPYYPDTNFSAVTEPTFFLTCQSDPVAHGNDYAVPWYNSMSQAEKLYIEVPGDHLCPMTGSGNKAKQGKWIVSFLSLWLRADTRFSPFLCGPVRDPDKNNPSLVTRWMDTCSF
B12: unnamed (protein)
chain: MLRFRVAASLPAEYLAVDNVVLEGTAQPPAPGGSGYQKGPEPTAALLEAGTGPFATASVTLSRSAASGFGGGTIHYPQGVAGPFAAVAVVPGYLAAESTIAWWGPRLASHGFVVITMATNNTLDLPASRSAQLTAALNQLKTLSATPGHAVFGLVDPNRLGVVGWSYGGGGTLLNAQANPQLKAAMALAPKTLLQGDFTGTTVPTLVVGCQADTTAAPAFWAIPFYNKVSASTGKAYLEVRGGSHFCVTSSTSDADKKALGKYGVAWLKRFMDEDTRYAPFLCGAPRQADVAGNAAISDYRDNCPY
B13: unnamed (protein)
chain: MRAGFMGVGAAALVALAGCSSTPSNEGTSKPSVTAPTGGSTVIGAAGVGATAGRPASAGTGASPAVTPPSTTVPSGTTKPPAAAGSSAMGAAGAAVSGMAGSSASAGTGAIAGSSAAAGSSAAAGSGAAAGSGAAPGGGFIREAAPTEDSLKKNGEYSVKSYTEKDGLVGGMEYGDAALGGDGSELYYPEGATAPFAAMAIVPGFTAQRSDVAPWGPFLASHGIVALVIDTNSTGDQPDVRSRALLDALESIKKENMRDGSPVKGKIDTSRLGVMGWSMGGGGTWITADGHPELKVAVSLCGWIIQSIGSKTTVPSLQLAVQDDQLAAGMSQPVYMAIPDKTPKMLVEWSSGGHWINNSPENVDHQVGRYGLPWIKVYLENDERYRQFFKTKPTGASDFQTNQ
B14: unnamed (protein)
chain: MKFNLVAQAALFAATLAAGSAAWAVQIGPAPTKSALEASRGPFSTKSFTVSRPNGYGAGTVYYPTNAGAKVGVISIVPGYLSYQNSINWWGPRLASHGFVVVTIDTNSTTDQPASRSTQQLKALDQVVALGNTSSSPLYNKVDGSRTGVMGWSMGGGGSLISGQNRPSIKAAAPQAPWNSSTNFSSLTVPTLIFGCQSDATAAPASHAIPFYNSMSRNPKQYLEKSLGNHFCFNSANATVGLKGVAWMKRFVDGDTRYTSFACNNPNASGFSSFRTERCS
B15: unnamed (protein)
chain: MASQTNPYARGPNPTAASLEASAGPFTVRSFTVSRPSGYGAGTVYYPTNAGGTVGAIAIVPAYAARQSSIKWWGPRLASHGFVVITIDTNSTLDQPSSRSSQQMAALRQVASLNGTSSSPIYGKVDTARMGVMGWSMGGGGSLISAANNPSLKAAAPQAPWDSSTNFSSVTVPTLIFACENDSIAPVNSSALPIYDSMSRNAKQFLEINGGSHSCANSGNSNQALIGKKGVAWMKRFMDNDTRYSTFACENPNSTRVSDFRTANCSLEHHHHHH

The proteins below were run on BHET. Details: 120 h.
B1 was tested, and the plate clearing was “not clears the plate”.
In the case of B2, the plate clearing is reported as “not clears the plate”.
In the case of B3, the plate clearing is reported as “not clears the plate”.
For B4, the plate clearing was “not clears the plate”.
With B5 the plate clearing was “not clears the plate”.
With B6 the plate clearing was “not clears the plate”.
In the case of B7, the plate clearing is reported as “not clears the plate”.
For B8, the plate clearing was “clears the plate (z > 3 vs empty vector)”.
B9 was tested, and the plate clearing was “not clears the plate”.
In the case of B10, the plate clearing is reported as “not clears the plate”.
In the case of B11, the plate clearing is reported as “not clears the plate”.
B12 was tested, and the plate clearing was “not clears the plate”.
For B13, the plate clearing was “clears the plate (z > 3 vs empty vector)”.
For B14, the plate clearing was “not clears the plate”.
With B15 the plate clearing was “not clears the plate”.

Source: the PETadex activity labels
